Assay results as given in article PMC5343089, “^1H, ^15N, ^13C backbone resonance assignments of human soluble catechol O-methyltransferase in complex with S-adenosyl-L-methionine and 3,5-dinitrocatechol” (Biomolecular Nmr Assignments, 2016).

Molecular target: the molecule itself
Assay: SEC + native gel or EMSA + other: mass spectrometry; Superdex 75 26/60, 50 mM Tris-HCl pH 7.5, 50 mM NaCl, 10 mM DTT, 4 °C; two separated peaks; native gel electrophoresis and mass spectrometry not shown

B1: human soluble catechol O-methyltransferase (enzyme, UniProt P21964-2 1-221, looked up)
chain: QGDTKEQRILNHVLQHAEPGNAQSVLEAIDTYCEQKEWAMNVGDKKGKIVDAVIQEHQPSVLLELGAYCGYSAVRMARLLSPGARLITIEINPDCAAITQRMVDFAGVKDKVTLVVGASQDIIPQLKKKYDVDTLDMVFLDHWKDRYLPDTLLLEECGLLRKGTVLLADNVICPGAPDFLAHVRGSSCFECTHYQSFLEYREVVDGLEKAIYKGPGSEAGP
notes: Catechol O-methyltransferase, human, soluble isoform (S-COMT), EC 2.1.1.6; valine at the polymorphic position 108; 233 residues with the 12-residue tag, so 221 residues of S-COMT; Q belongs to the ENLYFQG site; 2H,15N,13C-labelled protein; Val108 allele; also called S-COMT; human S-COMT; source: E. coli BL21(DE3), pET21a, purified (His-Trap Ni-Sepharose, Superdex 75 size exclusion)
  stoichiometry N: 2
